This is an account of results in the FLAb antibody collection (doi:10.1101/2023.12.08.570889).

B1: unnamed (protein)
chain 1: QVQLVQSGAEVKKPGASVKVSCKASGYTFTSSYINWVRQAPGQGLEWMGTINPVTGNTSYAQKFQGRVTMTRDTSISTAYMELSRLRSDDTAVYYCARGGYFDYWGQGTLVTVSS
chain 2: QSALTQPASVSGSPGQSITISCTGTSSDVGSYNYVNWYQQHPGKAPKLMIYGVSKRPSGVSNRFSGSKSGNTASLTISGLQAEDEADYYCGTFAGGSYYGVFGGGTKLTVL
B2: unnamed (protein)
chain 1: B1 chain 1 with S32T
chain 2: B1 chain 2
B3: unnamed (protein)
chain 1: B1 chain 1 with Y33G, G100N, F102M
chain 2: B1 chain 2
B4: unnamed (protein)
chain 1: QVQLVQSGAEVKKPGASVKVSCKASGYIFSNYWIQWVRQAPGQGLEWMGEILPGSGSTEYTENFKDRVTMTRDTSTSTVYMELSSLRSEDTAVYYCARDRFDVASGSSFDFWGQGTLVTVSS
chain 2: DIQMTQSPSSLSASVGDRVTITCGASENIYGALNWYQQKPGKAPKLLIYGATNLADGVPSRFSGSGSGTDFTLTISSLQPEDFATYYCQNVLNTPLTFGQGTKVEIK
B5: unnamed (protein)
chain 1: B4 chain 1 with D99F, F101Y, D102G, V103D, A104T, S105P, G106I, S107I, S108Y, F111Y
chain 2: B4 chain 2
B6: unnamed (protein)
chain 1: B4 chain 1 with D99Y, F101Y, D102G, V103D, A104T, S105P, G106F, S107I, S108Y, F111Y
chain 2: B4 chain 2
B7: unnamed (protein)
chain 1: QVQLVQSGAEVKKPGASVKVSCKASGYIFSNYWIQWVRQAPGQGLEWMGEILPGSGSTEYTENFKDRVTMTRDTSTSTVYMELSSLRSEDTAVYYCARYYWGDTPYIYFDYWGQGTLVTVSS
chain 2: B4 chain 2
B8: unnamed (protein)
chain 1: B7 chain 1 with Y99L, Y100R, W101Y, Y106F
chain 2: B4 chain 2
B9: unnamed (protein)
chain 1: B4 chain 1 with F101S, D102Y, V103G, A104D, G106S, S107W, S108A, F109L, F111A
chain 2: B4 chain 2
B10: unnamed (protein)
chain 1: B7 chain 1 with Y99L, Y100R, Y106I
chain 2: B4 chain 2
B11: unnamed (protein)
chain 1: B7 chain 1 with Y99L, W101Y
chain 2: B4 chain 2
B12: unnamed (protein)
chain 1: B7 chain 1 with Y100R
chain 2: B4 chain 2
B13: unnamed (protein)
chain 1: B7 chain 1 with W101Y, Y106T
chain 2: B4 chain 2
B14: unnamed (protein)
chain 1: B7 chain 1 with Y99L, Y100R, W101Y, Y106T
chain 2: B4 chain 2
B15: unnamed (protein)
chain 1: B7 chain 1 with Y100R, W101Y, Y106T
chain 2: B4 chain 2
B16: unnamed (protein)
chain 1: B7 chain 1 with W101Y, Y106F
chain 2: B4 chain 2
B17: unnamed (protein)
chain 1: B7 chain 1 with Y100R, Y106I
chain 2: B4 chain 2
B18: unnamed (protein)
chain 1: B7 chain 1 with Y100R, W101Y
chain 2: B4 chain 2
B19: unnamed (protein)
chain 1: B7 chain 1 with Y106I
chain 2: B4 chain 2

Positions count from the first letter of the chain named.

ACVR2B, Q13705, sequence (Q13705 whole entry, looked up): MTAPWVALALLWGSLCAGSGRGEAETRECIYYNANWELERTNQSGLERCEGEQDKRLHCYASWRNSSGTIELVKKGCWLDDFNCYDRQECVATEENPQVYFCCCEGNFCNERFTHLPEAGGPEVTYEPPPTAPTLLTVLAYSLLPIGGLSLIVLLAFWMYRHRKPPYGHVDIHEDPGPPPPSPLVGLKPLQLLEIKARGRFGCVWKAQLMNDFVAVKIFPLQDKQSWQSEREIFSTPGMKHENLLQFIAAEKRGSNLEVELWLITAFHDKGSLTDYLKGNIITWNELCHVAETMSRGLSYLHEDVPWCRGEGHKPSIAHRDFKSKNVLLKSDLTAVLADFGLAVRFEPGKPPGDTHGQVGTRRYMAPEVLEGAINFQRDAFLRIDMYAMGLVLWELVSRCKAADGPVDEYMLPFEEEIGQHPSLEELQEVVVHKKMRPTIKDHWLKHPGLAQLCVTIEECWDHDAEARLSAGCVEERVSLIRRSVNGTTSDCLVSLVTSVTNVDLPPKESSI

The first assay concerns the target ACVR2B, Q13705. The assay is described as follows: Kd (SPR).
For orientation: Kd means the free concentration of one partner at which half of the binding sites on the other are occupied at equilibrium, for simple one-to-one binding. In turn, B1 showed an equilibrium dissociation constant (Kd) of 10.3 nM.

The molecule B2 displayed a dissociation constant (Kd) of 7.87 nM.

B3: the Kd was 0.581 nM.

The next assay concerns the target C5, P01031. The assay is described as follows: Kd (SPR).
Regarding B4, the Kd was 325 nM.

Regarding B5, the Kd came to 280 nM.

As for B6, the Kd turned out to be 385 nM.

B7 yielded a Kd of 204 nM. This Kd lies about 1.9-fold lower than the previous one.

Take B8: the Kd worked out at 937 nM.

Turning to B9, the equilibrium dissociation constant (Kd) was 3980 nM.

B10 registered a Kd of 749 nM.

B11 showed a Kd of 492 nM. Compared with the last molecule, the Kd is about 1.5-fold lower.

The molecule B12 had a Kd of 850 nM.

Molecule B13 displayed a Kd of 111 nM.

B14: the Kd turned out to be 469 nM.

B15 came in with a Kd of 689 nM.

B16 came in with a dissociation constant (Kd) of 96.3 nM.

The molecule B17 registered an equilibrium dissociation constant (Kd) of 502 nM.

For B18, the Kd was 583 nM.

B19 registered a Kd of 162 nM.
